In patent US20200308277A1 one finds change in RU data, which are given here for 1 substance.

For experiment [1], the target named is huTIM-3/his (human) (UniProt Q8TDQ0). In words: SPR (Biacore) competition; 2nd antibody injection after 1st antibody ABTIM3-hum11 (competitor). (Surface plasmon resonance follows binding to a sensor surface in real time, without labels.)
The target is the same in experiment [2]. Briefly: SPR (Biacore) competition; 2nd antibody injection after 1st antibody huIgG1 (competitor).
The target is the same in experiment [3]. Briefly: SPR (Biacore) competition; 2nd antibody injection after 1st antibody ABTIM3-hum21 (competitor).
For experiment [4] the target is unchanged. Briefly: SPR (Biacore) competition, hTIM-3/his captured by anti-His antibody; 1st antibody injection.
Experiment [5] shares this target. In words: SPR (Biacore) competition; 2nd antibody injection after 1st antibody ABTIM3-hum03 (competitor).

Chain of huTIM-3/his (human) (Q8TDQ0 22-202 limits assumed): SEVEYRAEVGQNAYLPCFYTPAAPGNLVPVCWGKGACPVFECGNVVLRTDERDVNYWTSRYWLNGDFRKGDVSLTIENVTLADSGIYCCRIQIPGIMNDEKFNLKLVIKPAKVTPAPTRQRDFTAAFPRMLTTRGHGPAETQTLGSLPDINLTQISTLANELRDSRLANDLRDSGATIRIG

huIgG1 (antibody): the change in RU in experiment [1] came to 3.8 RU; in experiment [2], 3.6 RU; in experiment [3] it was 4.5 RU; in experiment [4], 0.27 RU; in experiment [5], 4.5 RU.
